Literature values in PMC6767322.

Target: IL-2Rβ/γc (Homo sapiens) (UniProt P14784)
Sequence of UniProt P14784 (P14784 27-240, chain 1 of 2): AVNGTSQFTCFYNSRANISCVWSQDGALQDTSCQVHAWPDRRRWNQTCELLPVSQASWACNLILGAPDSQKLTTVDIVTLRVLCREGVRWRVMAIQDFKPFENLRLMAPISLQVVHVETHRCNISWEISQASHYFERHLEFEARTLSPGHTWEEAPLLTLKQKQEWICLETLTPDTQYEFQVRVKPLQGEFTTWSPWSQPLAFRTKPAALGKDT
Sequence of UniProt P14784 (P31785 23-262, chain 2 of 2, further chain): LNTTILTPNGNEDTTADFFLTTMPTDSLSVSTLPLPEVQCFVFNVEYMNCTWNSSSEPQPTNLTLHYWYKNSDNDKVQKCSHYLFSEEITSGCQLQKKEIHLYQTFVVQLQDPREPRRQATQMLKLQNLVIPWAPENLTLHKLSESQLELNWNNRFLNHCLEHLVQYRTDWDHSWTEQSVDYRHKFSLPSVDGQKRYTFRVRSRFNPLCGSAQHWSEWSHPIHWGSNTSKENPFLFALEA

Kd: 0.03 µM
Substance: IL-15 (from UniProt P40933)
